Experimental data as given in patent US7217570B2, “Organotypic intestinal culture and methods of use thereof” (The Wistar Institute of Anatomy and Biology, priority 2001, dated 2007).

System: enteric epithelial cells
Experiment: Growth factor modulation of organotypic culture in reduced or modified media (Example 2)
Assay type: cell-based, human
Conditions: growth factor added individually to base medium (MCDB 201/L15, transferrin, antibiotics)
Method: To determine the role of growth factors on proliferation of colonic epithelial cells, this growth medium was modified by changing combinations of growth factors and deleting serum. Keratinocyte growth factor (KGF, R&D Systems) at 20 ng/ml was also tested as part of 23 growth factor combinations. Total relative cell numbers of a specific type were counted as an average of all nuclei counts from a minimum of 3 randomly selected cross-sections of a reconstruct. Goblet cells were counted based on their typical morphology and positive Alcian staining in at least 3 randomly selected slides. Proliferation rates in % were established by counting the number of BrdU or Ki-67-positive nuclei per total epithelial cell nuclei of section. Apoptotic cells were counted in H&E-stained sections (Vagunda, V. et al. 2000 Anal. Quant. Cytol. Histol., 22:307–310). Apoptotic bodies and nuclei were determined according to the size and numbers of the fragments. Apoptosis was calculated as percentage of total nuclei per section (Kerr, J F. et al. 1972 Br. J. Cancer, 26:239–257) To define the role of critical growth factors supporting growth and differentiation of the enteric epithelial cells, an organotypic culture, such as that described in Example 1, was grown in medium in which the number of supplements was reduced. […]

B1: epidermal growth factor (protein, UniProt P01133 23-1207, looked up)
Pro-epidermal growth factor: PQHWSCPEGTLAGNGNSTCVGPAPFLIFSHGNSIFRIDTEGTNYEQLVVDAGVSVIMDFHYNEKRIYWVDLERQLLQRVFLNGSRQERVCNIEKNVSGMAINWINEEVIWSNQQEGIITVTDMKGNNSHILLSALKYPANVAVDPVERFIFWSSEVAGSLYRADLDGVGVKALLETSEKITAVSLDVLDKRLFWIQYNREGSNSLICSCDYDGGSVHISKHPTQHNLFAMSLFGDRIFYSTWKMKTIWIANKHTGKDMVRINLHSSFVPLGELKVVHPLAQPKAEDDTWEPEQKLCKLRKGNCSSTVCGQDLQSHLCMCAEGYALSRDRKYCEDVNECAFWNHGCTLGCKNTPGSYYCTCPVGFVLLPDGKRCHQLVSCPRNVSECSHDCVLTSEGPLCFCPEGSVLERDGKTCSGCSSPDNGGCSQLCVPLSPVSWECDCFPGYDLQLDEKSCAASGPQPFLLFANSQDIRHMHFDGTDYGTLLSQQMGMVYALDHDPVENKIYFAHTALKWIERANMDGSQRERLIEEGVDVPEGLAVDWIGRRFYWTDRGKSLIGRSDLNGKRSKIITKENISQPRGIAVHPMAKRLFWTDTGINPRIESSSLQGLGRLVIASSDLIWPSGITIDFLTDKLYWCDAKQSVIEMANLDGSKRRRLTQNDVGHPFAVAVFEDYVWFSDWAMPSVMRVNKRTGKDRVRLQGSMLKPSSLVVVHPLAKPGADPCLYQNGGCEHICKKRLGTAWCSCREGFMKASDGKTCLALDGHQLLAGGEVDLKNQVTPLDILSKTRVSEDNITESQHMLVAEIMVSDQDDCAPVGCSMYARCISEGEDATCQCLKGFAGDGKLCSDIDECEMGVPVCPPASSKCINTEGGYVCRCSEGYQGDGIHCLDIDECQLGEHSCGENASCTNTEGGYTCMCAGRLSEPGLICPDSTPPPHLREDDHHYSVRNSDSECPLSHDGYCLHDGVCMYIEALDKYACNCVVGYIGERCQYRDLKWWELRHAGHGQQQKVIVVAVCVVVLVMLLLLSLWGAHYYRTQKLLSKNPKNPYEESSRDVRSRRPADTEDGMSSCPQPWFVVIKEHQDLKNGGQPVAGEDGQAADGSMQPTSWRQEPQLCGMGTEQGCWIPVSSDKGSCPQVMERSFHMPSYGTQTLEGGVEKPHSLLSANPLWQQRALDPPHQMELTQ
modifications: Pro-epidermal growth factor
notes: human recombinant epidermal growth factor (Sigma)
epithelial cell proliferation: not supported

B2: Keratinocyte growth factor (protein, UniProt P21781 32-194, looked up)
Fibroblast growth factor 7: CNDMTPEQMATNVNCSSPERHTRSYDYMEGGDIRVRRLFCRTQWYLRIDKRGKVKGTQEMKNNYNIMEIRTVAVGIVAIKGVESEFYLAMNKEGKLYAKKECNEDCNFKELILENHYNTYASAKWTHNGGEMFVALNQKGIPVRGKKTKKEQKTAHFLPMAIT
notes: Keratinocyte growth factor (R&D Systems) at 20 ng/ml
epithelial cell proliferation: not supported
